Biological target: GST-HktR (Pseudomonas syringae pv. actinidiae M228)
Assay: MST

## RpoD-His6 (natural protein)
  Kd: 1790 nM

From doi:10.1101/2024.11.20.624486
